Source: patent US20140220596A1 (MEDICINAL BIOCONVERGENCE RESEARCH CENTER, published 2014)
One block for each molecule: values may come before it.

T1: His-tagged recombinant human glycyl-tRNA synthetase (GRS), 685 amino acids (human, UniProt P41250 55-739)
T1 construct: Expressed in E. coli; also called His-GRS; his-tagged GRS; not shown: His tag from vector pET-28a (EcoRI/XhoI)
T1 sequence: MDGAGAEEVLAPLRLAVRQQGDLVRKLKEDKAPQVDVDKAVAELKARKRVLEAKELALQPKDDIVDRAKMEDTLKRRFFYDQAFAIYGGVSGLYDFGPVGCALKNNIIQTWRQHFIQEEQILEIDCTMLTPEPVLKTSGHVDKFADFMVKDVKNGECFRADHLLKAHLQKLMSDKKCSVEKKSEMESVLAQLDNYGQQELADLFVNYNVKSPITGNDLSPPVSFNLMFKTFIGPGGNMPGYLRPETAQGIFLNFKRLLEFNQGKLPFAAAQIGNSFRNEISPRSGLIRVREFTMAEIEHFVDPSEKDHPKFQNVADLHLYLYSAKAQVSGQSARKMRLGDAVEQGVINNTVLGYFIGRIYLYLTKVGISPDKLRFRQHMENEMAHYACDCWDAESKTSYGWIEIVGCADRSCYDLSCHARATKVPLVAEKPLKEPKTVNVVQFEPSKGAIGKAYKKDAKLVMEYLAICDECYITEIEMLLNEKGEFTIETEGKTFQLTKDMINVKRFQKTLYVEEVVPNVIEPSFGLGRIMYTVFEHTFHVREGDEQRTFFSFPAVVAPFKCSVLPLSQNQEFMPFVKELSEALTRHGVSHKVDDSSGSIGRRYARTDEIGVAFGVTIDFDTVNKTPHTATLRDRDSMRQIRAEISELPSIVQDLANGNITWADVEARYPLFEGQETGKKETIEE

B1: Fc-fused soluble cadherin-2 (extracellular domain of CDH2 fused to the Fc fragment of human IgG1) (Fc fusion, UniProt P19022 160-724, looked up)
chain: DWVIPPINLPENSRGPFPQELVRIRSDRDKNLSLRYSVTGPGADQPPTGIFIINPISGQLSVTKPLDREQIARFHLRAHAVDINGNQVENPIDIVINVIDMNDNRPEFLHQVWNGTVPEGSKPGTYVMTVTAIDADDPNALNGMLRYRIVSQAPSTPSPNMFTINNETGDIITVAAGLDREKVQQYTLIIQATDMEGNPTYGLSNTATAVITVTDVNDNPPEFTAMTFYGEVPENRVDIIVANLTVTDKDQPHTPAWNAVYRISGGDPTGRFAIQTDPNSNDGLVTVVKPIDFETNRMFVLTVAAENQVPLAKGIQHPPQSTATVSVTVIDVNENPYFAPNPKIIRQEEGLHAGTMLTTFTAQDPDRYMQQNIRYTKLSDPANWLKIDPVNGQITTIAVLDRESPNVKNNIYNATFLASDNGIPPMSGTGTLQIYLLDINDNAPQVLPQEAETCETPDPNSINITALDYDIDPNAGPFAFDLPLSPVTIKRNWTITRLNGDFAQLNLKIKFLEAGIYEVPIIITDSGNPPKSNISILRVKVCQCDSNGDCTDVDRIVGAGLGTGA
notes: extracellular domain; also called Fc-CDH2; not shown: Fc fragment of human IgG1
B2: Fc-fused soluble cadherin-6 (extracellular domain of CDH6 fused to the Fc fragment of human IgG1) (Fc fusion)
chain: SWMWNQFFLLEEYTGSDYQYVGKLHSDQDRGDGSLKYILSGDGAGDLFIINENTGDIQATKRLDREEKPVYILRAQAINRRTGRPVEPESEFIIKIHDINDNEPIFTKEVYTATVPEMSDVGTFVVQVTATDADDPTYGNSAKVVYSILQGQPYFSVESETGIIKTALLNMDRENREQYQVVIQAKDMGGQMGGLSGTTTVNITLTDVNDNPPRFPQSTYQFKTPESSPPGTPIGRIKASDADVGENAEIEYSITDGEGLDMFDVITDQETQEGIITVKKLLDFEKKKVYTLKVEASNPYVEPRFLYLGPFKDSATVRIVVEDVDEPPVFSKLAYILQIREDAQINTTIGSVTAQDPDAARNPVKYSVDRHTDMDRIFNIDSGNGSIFTSKLLDRETLLWHNITVIATEINNPKQSSRVPLYIKVLDVNDNAPEFAEFYETFVCEKAKADQLIQTLHAVDKDDPYSGHQFSFSLAPEAASGSNFTIQDNKDNTAGILTRKNGYNRHEMSTYLLPVVISDNDYPVQSSTGTVTVRVCACDHHGNMQSCHAEALIHPTGLSTGA
notes: also called Fc-CDH6; Fc-fused CDH6; not shown: Fc fragment of human IgG1
B3: GST-fused GRS fragment F4 (C-terminal anticodon-binding domain, 175 amino acids) (other, not shown: a dimerising Fc or GST; small tags and cut ends)
chain: LYVEEVVPNVIEPSFGLGRIMYTVFEHTFHVREGDEQRTFFSFPAVVAPFKCSVLPLSQNQEFMPFVKELSEALTRHGVSHKVDDSSGSIGRRYARTDEIGVAFGVTIDFDTVNKTPHTATLRDRDSMRQIRAEISELPSIVQDLANGNITWADVEARYPLFEGQETGKKETIEE
notes: also called ABD; GST-GRS F4

Assays:
[1] = target: Fc-fused soluble cadherin-18 (extracellular domain of CDH18 fused to the Fc fragment of human IgG1) (human) (UniProt Q13634); assay: SPR (ProteOn XPR36), Fc-cadherin amine-coupled to GLC chip, GRS as analyte, Langmuir 1:1 model
[2] = target: T1, His-tagged recombinant human …; assay: ELISA: plate coated with His-GRS or BSA, Fc-fused cadherin added, detected with anti-human IgG1 Fc-HRP; axis OD 490nm
Method: (§1) (A) A panel of Fc-fused soluble cadherin family proteins was bound to His-tagged GRS or to BSA-coated plates, and complexes were detected with the IgG1 Fc-HRP (Thermo) reagent. (B) To confirm the binding between cadherins and GRS, Fc-CDH2, 6 and 18 were incubated with His-GRS. Fc-CDHs were precipitated with protein A/G agarose and co-precipitated GRS was determined by immunoblotting. (C) To calculate the equilibrium dissociation constant (IQ), immobilized Fc-fused (to gold chips) cadherins were incubated with GRS (31.25 nM˜1 uM). Binding of GRS to CDH6 was determined by surface plasmon resonance and expressed as resonance units (RU). (D) To confirm the binding between CDH6 and GRS domain peptides, Fc-CDH6 was incubated with different domains (F1, 2, 3 and 4) of GRS that were expressed as the GST fusion proteins. GST-GRS proteins were precipitated with GSH-sepharose beads and co-precipitated CDH6 was determined by immunoblotting. (E) Five difference cancers cells were determined for the expression of CDH6 by immunoblotting. (F) HCT116 cells were transfected with non-specific siRNA controls (si-con) or two differently designed siRNAs targeting CDH6 (#1 and #2), treated with biotinylated GRS (15 nM), and the binding of GRS was analyzed by immunoblotting. (G) HCT116 cells were transfected with si-con and si-CDH6 as described above, and cell binding of GRS was measured by FACS analysis. (H) HCT116 cells were incubated with His-GRS (150 nM). To neutralize the effects of GRS, Fc-fused CDH6 (300 nM) was added and the cell viability was determined by the MTT assay. Error bars represent standard deviation. (I) The binding between CDH6 and GRS domain peptides was again confirmed by ELISA assay.
To identifying the receptor of GRS, a Maxisorp plate (Nunc, Rochester, N.Y.) was used for an ELISA detection. The plate were coated with purified his-tagged GRS (1 ug/ml) or BSA (1 ug/ml) in phosphate buffer saline and then blocked (PBS, 4% non-fat milk). Fc-fusion cadherin family proteins (1 ug/ml) were added to the plate and after washing with PBST (0.05% Tween20), the plates were incubated with anti-human IgG1 Fc-HRP (Thermo, Waltham, Mass.). […]

[3] = target: T1, His-tagged recombinant human …; assay: SPR (ProteOn XPR36), Fc-cadherin amine-coupled to GLC chip, GRS as analyte, Langmuir 1:1 model
Method: Binding of GRS to CDH6 was determined by surface plasmon resonance and expressed as resonance units (RU). (D) To confirm the binding between CDH6 and GRS domain peptides, Fc-CDH6 was incubated with different domains (F1, 2, 3 and 4) of GRS that were expressed as the GST fusion proteins. GST-GRS proteins were precipitated with GSH-sepharose beads and co-precipitated CDH6 was determined by immunoblotting. (E) Five difference cancers cells were determined for the expression of CDH6 by immunoblotting. (F) HCT116 cells were transfected with non-specific siRNA controls (si-con) or two differently designed siRNAs targeting CDH6 (#1 and #2), treated with biotinylated GRS (15 nM), and the binding of GRS was analyzed by immunoblotting. (G) HCT116 cells were transfected with si-con and si-CDH6 as described above, and cell binding of GRS was measured by FACS analysis. […] To neutralize the effects of GRS, Fc-fused CDH6 (300 nM) was added and the cell viability was determined by the MTT assay. […]
Binding of GRS to the cadherin-Fc fusion proteins was determined by the SPR technique using a ProteOn XPR36 Protein Interaction Array System (BioRad). […] The binding was determined by the change in resonance units (RU), where one resonance unit is defined as 1 pg/mm². The Sensogram was processed by subtracting the binding response recorded from the control surface. […]

[4] = target: B2; assay: GST pull-down with GSH-sepharose, immunoblot for CDH6
Method: as §1, with “(H) HCT116 cells were incubated with His-GRS (150 nM). To neutralize the effects of GRS, Fc-fused CDH6 (300 nM) was added and the cell viability was determined by the MTT assay. Error bars represent standard deviation. (I) The binding between CDH6 and GRS domain peptides was again confirmed by ELISA assay.” left out

Kd [1]: 1.25 nM
Molecule: His-tagged recombinant human glycyl-tRNA synthetase (GRS), 685 amino acids (from UniProt P41250 55-739) (enzyme)

Molecule: B1
binding result [2]: no binding (tested: 1 ug/ml (single concentration))

Molecule: B2
Kd [3]: 3.4 nM

Molecule: B3
binding result [4]: binds
